# Measured values from the supplement of paper PMC9112550, “Optimization of the antimicrobial peptide Bac7 by deep mutational scanning” (BMC Biology, 2022).
# Tested on: Escherichia coli TOP10
# Experiment: shrunken log2 fold change of peptide-encoding DNA abundance (4.5 h post-induction vs induction); higher = less antimicrobial activity (less host growth inhibition)
# Conditions: time post-induction: 4.5 h; library: site-saturation at positions 5, 18, 19, 20
# 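Note: peptides expressed intracellularly from a pBAD plasmid library in pooled LB shake-flask culture, induced with 0.3% L-arabinose, DNA abundance read by NGS, three biological replicates, DESeq2 with apeglm shrinkage.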
row,Sequence,shrunken log2 fold change
1,RRIRSRPPRLPRPRPRPSDRPRP,-0.254
2,RRIRTRPPRLPRPRPRPKYPPRP,-0.252
3,RRIRTRPPRLPRPRPRPEFEPRP,0.0862
4,RRIRGRPPRLPRPRPRPCSPPRP,0.0454
5,RRIRQRPPRLPRPRPRPRPQPRP,0.262
6,RRIRVRPPRLPRPRPRPCAFPRP,-0.264
7,RRIRCRPPRLPRPRPRPMVSPRP,0.0237
8,RRIRARPPRLPRPRPRPLGWPRP,0.951
9,RRIRSRPPRLPRPRPRPMEIPRP,0.014
10,RRIRLRPPRLPRPRPRPVWDPRP,-0.0661
11,RRIRKRPPRLPRPRPRPTHYPRP,-0.134
12,RRIRSRPPRLPRPRPRPDYKPRP,-0.722
13,RRIRNRPPRLPRPRPRPHNWPRP,-0.391
14,RRIRTRPPRLPRPRPRPVAKPRP,0.111
15,RRIRARPPRLPRPRPRPPPTPRP,1.13
16,RRIRPRPPRLPRPRPRPDSMPRP,-0.326
17,RRIRDRPPRLPRPRPRPLLHPRP,0.114
18,RRIRIRPPRLPRPRPRPRYEPRP,-0.011
19,RRIRFRPPRLPRPRPRPKALPRP,0.191
20,RRIRPRPPRLPRPRPRPILDPRP,-0.0669
21,RRIRKRPPRLPRPRPRPNNSPRP,-0.371
22,RRIRSRPPRLPRPRPRPKSVPRP,-0.0236

row,Sequence,shrunken log2 fold change
1,RRIRDRPPRLPRPRPRPMLRPRP,0.0179
2,RRIRCRPPRLPRPRPRPPKLPRP,0.0685
3,RRIRNRPPRLPRPRPRPPSDPRP,-0.118
4,RRIRFRPPRLPRPRPRPGPWPRP,0.216
5,RRIRERPPRLPRPRPRPPNFPRP,-0.329
6,RRIRFRPPRLPRPRPRPKAYPRP,-0.436
7,RRIRHRPPRLPRPRPRPSFTPRP,-0.632
8,RRIRRRPPRLPRPRPRPNRSPRP,0.339
9,RRIRFRPPRLPRPRPRPQKSPRP,-0.285
10,RRIRARPPRLPRPRPRPPPWPRP,1.03
11,RRIRARPPRLPRPRPRPKEYPRP,-0.15
12,RRIRLRPPRLPRPRPRPLAGPRP,0.0705
13,RRIRYRPPRLPRPRPRPPIKPRP,-0.518
14,RRIRDRPPRLPRPRPRPGLYPRP,0.199
15,RRIRFRPPRLPRPRPRPWSVPRP,-0.0111
16,RRIRVRPPRLPRPRPRPHMSPRP,-0.405
17,RRIRMRPPRLPRPRPRPHCMPRP,-0.122
18,RRIRRRPPRLPRPRPRPHHEPRP,0.0234
19,RRIRFRPPRLPRPRPRPCSWPRP,-0.349
20,RRIRHRPPRLPRPRPRPNTLPRP,-0.0867
21,RRIRYRPPRLPRPRPRPKVWPRP,0.221
22,RRIRHRPPRLPRPRPRPGQFPRP,-0.0207

row,Sequence,shrunken log2 fold change
1,RRIRRRPPRLPRPRPRPLCDPRP,0.422
2,RRIRMRPPRLPRPRPRPALEPRP,0.347
3,RRIRCRPPRLPRPRPRPNKWPRP,-0.00442
4,RRIRIRPPRLPRPRPRPTHAPRP,0.216
5,RRIRVRPPRLPRPRPRPRMHPRP,0.151
6,RRIRNRPPRLPRPRPRPTRGPRP,0.725
7,RRIRDRPPRLPRPRPRPMRCPRP,0.147
8,RRIRCRPPRLPRPRPRPGHWPRP,0.0171
9,RRIRWRPPRLPRPRPRPECFPRP,0.671
10,RRIRGRPPRLPRPRPRPHNGPRP,0.0528
11,RRIRSRPPRLPRPRPRPFTNPRP,-0.0617
12,RRIRWRPPRLPRPRPRPSAAPRP,0.921
13,RRIRERPPRLPRPRPRPTMSPRP,-0.217
14,RRIRVRPPRLPRPRPRPHESPRP,0.22
15,RRIRMRPPRLPRPRPRPPWGPRP,0.686
16,RRIRVRPPRLPRPRPRPARGPRP,0.681
17,RRIRERPPRLPRPRPRPCSDPRP,-0.5
18,RRIRQRPPRLPRPRPRPQWKPRP,-0.0075
19,RRIRYRPPRLPRPRPRPGQNPRP,-0.01
20,RRIRIRPPRLPRPRPRPGYIPRP,-0.752
21,RRIRCRPPRLPRPRPRPPATPRP,0.887
22,RRIRARPPRLPRPRPRPMTSPRP,0.237

row,Sequence,shrunken log2 fold change
1,RRIRMRPPRLPRPRPRPARYPRP,0.581
2,RRIRKRPPRLPRPRPRPACFPRP,-0.0348
3,RRIRQRPPRLPRPRPRPHKYPRP,-1.21
4,RRIRHRPPRLPRPRPRPESHPRP,-0.0331
5,RRIRCRPPRLPRPRPRPQSFPRP,-0.253
6,RRIRARPPRLPRPRPRPKHLPRP,0.417
7,RRIRKRPPRLPRPRPRPRFTPRP,0.158
8,RRIRFRPPRLPRPRPRPVWSPRP,0.175
9,RRIRKRPPRLPRPRPRPDPEPRP,-0.0797
10,RRIRWRPPRLPRPRPRPPWCPRP,0.183
11,RRIRDRPPRLPRPRPRPTLDPRP,0.784
12,RRIRERPPRLPRPRPRPPTSPRP,0.0163
13,RRIRHRPPRLPRPRPRPADAPRP,-0.0349
14,RRIRQRPPRLPRPRPRPKQFPRP,0.102
15,RRIRLRPPRLPRPRPRPCIFPRP,-0.463
16,RRIRGRPPRLPRPRPRPTEKPRP,0.455
17,RRIRKRPPRLPRPRPRPGTHPRP,0.213
18,RRIRKRPPRLPRPRPRPFSAPRP,-0.12
19,RRIRHRPPRLPRPRPRPDHEPRP,-0.018
20,RRIRSRPPRLPRPRPRPMLVPRP,-0.0894
21,RRIRERPPRLPRPRPRPEISPRP,-0.407
22,RRIRGRPPRLPRPRPRPPMRPRP,1.39

row,Sequence,shrunken log2 fold change
1,RRIRCRPPRLPRPRPRPRREPRP,0.746
2,RRIRARPPRLPRPRPRPHEQPRP,0.257
3,RRIRRRPPRLPRPRPRPTGAPRP,0.633
4,RRIRGRPPRLPRPRPRPSTQPRP,0.82
5,RRIRIRPPRLPRPRPRPNADPRP,-0.322
6,RRIRMRPPRLPRPRPRPMCMPRP,-0.179
7,RRIRWRPPRLPRPRPRPTTVPRP,0.11
8,RRIRPRPPRLPRPRPRPLPFPRP,-0.75
9,RRIRNRPPRLPRPRPRPRNEPRP,0.121
10,RRIRQRPPRLPRPRPRPFAPPRP,0.0897
11,RRIRKRPPRLPRPRPRPGDYPRP,0.559
12,RRIRIRPPRLPRPRPRPYNPPRP,-0.276
13,RRIRIRPPRLPRPRPRPPMSPRP,-0.288
14,RRIRFRPPRLPRPRPRPLEFPRP,-0.0464
15,RRIRDRPPRLPRPRPRPTEKPRP,0.0633
16,RRIRVRPPRLPRPRPRPDDAPRP,0.134
17,RRIRRRPPRLPRPRPRPIWIPRP,-0.32
18,RRIRVRPPRLPRPRPRPWGVPRP,-0.15
19,RRIRTRPPRLPRPRPRPFFYPRP,-0.345
20,RRIRVRPPRLPRPRPRPSGAPRP,0.197
21,RRIRMRPPRLPRPRPRPSPSPRP,0.588
